Several values for one entry are separate records, joined by “and”; a condition that tells them apart may be missing. Identical values can stand only once.

B4: p66CH2CB WT (N-terminal domains CH2 and CB of p66Shc, residues 1-150) (domain or fragment, UniProt P29353-1 1-150, looked up)
chain: MDLLPPKPKYNPLRNESLSSLEEGASGSTPPEELPSPSASSLGPILPPLPGDDSPTTLCSFFPRMSNLRLANPAGGRPGSKGEPGRAADDGEGIVGAAMPDSGPLPLLQDMNKLSGGGGRRTRVEGGQLGGEEWTRHGSFVNKPTRGWLH
notes: p66Shc (largest polypeptide of the shcA locus), residues 1-150 (CH2 and CB domains); Exists as a reduced dimer and an oxidised, disulfide-bridged tetramer; used as a mixture or as isolated states; also called p66Shc N-terminal domain; source: E. coli BL21(DE3)Rosetta2, purified (Talon resin, size exclusion on superose 12)

The target of series [1] is B4. Put plainly: native gel or EMSA; BN-PAGE of purified recombinant proteins incubated for 1 hour at room temperature (20 μg p66CH2CB with 40 μg Prx1 WT or 20 μg Prx1-Cys83Ser); bands cut out and separated in a second, denaturing SDS-PAGE dimension. Particulars: both partners purified.
Series [2] concerns the molecule itself. The description is as above.
Series [3] deals with the molecule itself. Nature of the series: native gel or EMSA; BN-PAGE; 15 μg p66CH2CB with 30 μg decameric Prx1-Cys52Ser and 5/10/20 μg Trx1 in the presence of 3 mM EDTA. (Mobility shift assays separate free from complexed probe on a gel.)
Series [4] concerns the molecule itself. Put plainly: SEC; oligomeric states separated on a superose 12 column in 20 mM Tris pH 7.8 + 150 mM NaCl. For orientation: Size exclusion chromatography separates by hydrodynamic size, large species first.

B1: Peroxiredoxin 1 (Prx1) WT, recombinant (enzyme, mouse, UniProt P35700 1-199, looked up)
chain: MSSGNAKIGYPAPNFKATAVMPDGQFKDISLSEYKGKYVVFFFYPLDFTFVCPTEIIAFSDRADEFKKLNCQVIGASVDSHFCHLAWINTPKKQGGLGPMNIPLISDPKRTIAQDYGVLKADEGISFRGLFIIDDKGILRQITINDLPVGRSVDEIIRLVQAFQFTDKHGEVCPAGWKPGSDTIKPDVNKSKEYFSKQK
notes: Peroxiredoxin 1, gene PCR-amplified from mouse colon cDNA, cloned into pET151/D-Topo; Mainly a decamer (five dimers) on the BN-gel; also called decameric Prx1; source: E. coli BL21(DE3)Rosetta2, purified (Talon resin, size exclusion on superose 12); copies: 10
Regarding B1, the “stoichiometry N” value in series [1] came out at 1.

B2: Prx1-Cys83Ser (enzyme, mouse, UniProt P35700 1-199, looked up)
chain: MSSGNAKIGYPAPNFKATAVMPDGQFKDISLSEYKGKYVVFFFYPLDFTFVCPTEIIAFSDRADEFKKLNCQVIGASVDSHFSHLAWINTPKKQGGLGPMNIPLISDPKRTIAQDYGVLKADEGISFRGLFIIDDKGILRQITINDLPVGRSVDEIIRLVQAFQFTDKHGEVCPAGWKPGSDTIKPDVNKSKEYFSKQK
notes: Peroxiredoxin 1 from mouse colon cDNA in pET151/D-Topo, Cys83Ser; Constitutively dimeric; also called Cys83Ser regulatory mutant; dimeric Prx1-Cys83Ser mutant; source: E. coli BL21(DE3)Rosetta2, purified (Talon resin, size exclusion on superose 12)
On to B2, for which, in series [2], the “stoichiometry N” value was 2.

B3: Prx1-Cys52Ser (enzyme, mouse, UniProt P35700 1-199, looked up)
chain: MSSGNAKIGYPAPNFKATAVMPDGQFKDISLSEYKGKYVVFFFYPLDFTFVSPTEIIAFSDRADEFKKLNCQVIGASVDSHFCHLAWINTPKKQGGLGPMNIPLISDPKRTIAQDYGVLKADEGISFRGLFIIDDKGILRQITINDLPVGRSVDEIIRLVQAFQFTDKHGEVCPAGWKPGSDTIKPDVNKSKEYFSKQK
notes: Peroxiredoxin 1 from mouse colon cDNA in pET151/D-Topo, Cys52Ser (peroxidasic cysteine); also called Prx1-Cys52Ser active site mutant; source: E. coli BL21(DE3)Rosetta2, purified (Talon resin, size exclusion on superose 12); copies: 10
As to B3, in series [3], the “stoichiometry N” value stood at 10.
In the case of B4, the “stoichiometry N” value in series [4] was 2; in series [2], 4.

B5: p66CH2CB-Ser36Asp (domain or fragment, UniProt P29353 1-150, looked up)
chain: MDLLPPKPKYNPLRNESLSSLEEGASGSTPPEELPDPSASSLGPILPPLPGDDSPTTLCSFFPRMSNLRLANPAGGRPGSKGEPGRAADDGEGIVGAAMPDSGPLPLLQDMNKLSGGGGRRTRVEGGQLGGEEWTRHGSFVNKPTRGWLH
notes: p66Shc, residues 1-150 (CH2 and CB domains), Ser36Asp phosphomimetic; Dimer and tetramer forms were both used; also called Ser36Asp mutant; p66CH2CB-Ser36Asp mutant simulating Ser36 phosphorylation; source: E. coli BL21(DE3)Rosetta2, purified (Talon resin, size exclusion on superose 12)
Take B5: in series [4], the “stoichiometry N” value was 2 and 4.

By stoichiometry N is commonly meant a count of units in the complex or per binding partner.

Source of the values: PMC2806001, “Identification of Peroxiredoxin 1 as a novel interaction partner for the lifespan regulator protein p66Shc” (Aging, 2009).
